Experiments:
Format in all cases: binding
[1] = target: T1, pSYK in pervanadate-treated WSU-DLCL cells, PHTX-95L xenograft, DLBCL TMA core, normal spleen (Homo sapiens, UniProt P43405); test: Validation of MIL81-1-8 IHC specificity
T1 construct: from tissue; host or cells: pellet of pervanadate-treated WSU-DLCL cells; PHTX-95L xenograft; DLBCL tissue microarray core; normal spleen
Protocol: Validation of the specificity MIL81-1-8 on lymphoma cells used a pellet of pervanadate-treated WSU-DLCL cells, PHTX-95L xenograft or a TMA core of a DLBCL tumor. When peptide immunogen was added to the antibody prior to incubation with the tissue, the pSYK IHC staining was blocked (FIG. 9). Another validation of the specificity of MIL81-1-8 staining used phosphatase treatment of the slides prior to antibody incubation. […] Due to this nuclear staining of phosphatase-treated samples, staining of only nuclei in samples was generally judged to be off-target and thus pSYK-negative.

[2] = target: T2, pSYK in HBL1 and Ly10 xenografts (Homo sapiens, UniProt P43405); test: IHC on medium- and low-expressing xenografts
T2 construct: from tissue; host or cells: FFPE HBL1 and OCI-LY10 xenografts in SCID mice
Protocol: An IHC assay using the MIL81-1-8 antibody was developed to evaluate pSYK expression in HBL1 xenograft tissue and several primary human tissue xenografts (PHTX-95L, OCI LY10) derived from diffuse large B-cell lymphoma (DLBCL) patient samples in female SCID mice. pSYK protein levels in Formalin-Fixed, Paraffin-Embedded (FFPE) tissues were assessed on […] thick sections and incubated with MIL81-1-8 antibody ([…]) for 1 hour on the Ventana Medical Systems (Tucson, Ariz.) Discovery XT automated stainer. Antibodies were incubated with OmniMap goat anti-rabbit HRP secondary antibody (Ventana Medical Systems) for 16 minutes and developed with the 3,3′-diaminobexidine (DAB) substrate map system. Slides were counterstained with hematoxylin and imaged using the Aperio whole slide scanning system (XT).
Similar results were obtained with the MIL81-1-8 subclone using an automated protocol on a Leica automated stainer. pSYK protein levels in Formalin-Fixed, Paraffin-Embedded tissues were incubated with MIL81-1-8 antibody ([…]) for 30 minutes on the Leica Microsystems (Wetzlar, Germany) BOND RX automated stainer. Antibodies were incubated with a rabbit anti-goat HRP secondary antibody (Leica Laboratories) and developed with the 3,3′-diaminobexidine (DAB) substrate map system. Slides were counterstained with hematoxylin and imaged using the Aperio whole slide scanning system (XT). […]

[3] = target: T3, pSYK Y525/6 in DLBCL tissue biopsies (Homo sapiens, UniProt P43405); test: IHC on recently biopsied DLBCL tissues
T3 construct: from tissue; host or cells: FFPE human DLBCL biopsies; one normal lymph node

[4] = target: T4, pSYK in PHTX95L xenograft (Homo sapiens, UniProt P43405); test: IHC on Leica BOND RX, PHTX95L xenograft background; details: MIL81-1-8 at 1:3200, 2175 at 1:25
T4 construct: from tissue; host or cells: FFPE sections of PHTX-95L primary human lymphoma xenografts grown in NOD SCID mice
Protocol: Similar results were obtained with the MIL81-1-8 subclone using an automated protocol on a Leica automated stainer. pSYK protein levels in Formalin-Fixed, Paraffin-Embedded tissues were incubated with MIL81-1-8 antibody ([…]) for 30 minutes on the Leica Microsystems (Wetzlar, Germany) BOND RX automated stainer. Antibodies were incubated with a rabbit anti-goat HRP secondary antibody (Leica Laboratories) and developed with the 3,3′-diaminobexidine (DAB) substrate map system. Slides were counterstained with hematoxylin and imaged using the Aperio whole slide scanning system (XT). MIL81-1-8 antibody was compared to commercial pSYK antibody Epitomics pSYK Catalog No. 2175-1 (Y525/526) for staining specificity. […] A detectable trend toward reduction of pSYK staining also was seen by the anti-pSYK MIL81-1-8 antibody in medium- and low-expressing xenograft samples from mice treated with a SYK inhibitor (FIGS. 5 to 7).

[5] = target: T5, pSYK in PHTX 95L xenografts (Homo sapiens, UniProt P43405); test: Quantitative pSYK IHC on PHTX 95L xenografts (Positive Pixel Count)
T5 construct: from tissue; host or cells: FFPE sections of PHTX-95L primary human lymphoma xenografts grown in NOD SCID mice
Protocol: Final selection of antibody was performed by qualitative and quantitative assessment of IHC results of staining pSYK in PHTX 95L xenografts from untreated or SYK inhibitor-treated mice described above using the Ventana Discovery XT autostainer and the same staining protocols as previous assays (see FIG. 2).
Quantitative analysis was performed with Aperio Spectrum analysis following Postitive Pixel Count v9 Algorithm at 20× magnification. The Positive pixel analysis was used rather than a signal-to-noise ratio because of program difficulties defining true cytoplasmic staining from background for positive amounts below 5%. The table below has the results of the quantitive analysis.

B1: Subclone 1-8: rabbit monoclonal anti-pSYK Y525/526 antibody from hybridoma subclone of multiclone 81-1 (antibody)
heavy: QSVEESGGRLVTPGTPLTLTCTVSGIDLNSYIMSWVRQAPGKGLEWIGIISRRGNTYYASWPKGRFTISKTSTTVDLKITSPTTEDTATYFCARAYLYTSGTMSVWGPGTLVTVSSGQPKAPSVFPLAPCCGDTPSSTVTLGCLVKGYLPEPVTVTWNSGTLTNGVRTFPSVRQSSGLYSLSSVVSVTSSSQPVTCNVAHPATNTKVDKTVAPSTCSKPTCPPPELLGGPSVFIFPPKPKDTLMISRTPEVTCVVVDVSQDDPEVQFTWYINNEQVRTARPPLREQQFNSTIRVVSTLPIAHQDWLRGKEFKCKVHNKALPAPIEKTISKARGQPLEPKVYTMGPPREELSSRSVSLTCMINGFYPSDISVEWEKNGKAEDNYKTTPAVLDSDGSYFLYSKLSVPTSEWQRGDVFTCSVMHEALHNHYTQKSISRSPGK
light: ADIVMTQTPSPVEAAVGGTVTIKCQASESISSYLSWYQQKPGQPPKLLIYRASTLVSGVPSRFKGSGSGTDFTLTISDLECADAATYYCQHTYFGSDYVGGFGGGTEVVVKGDPVAPTVLIFPPAADQVATGTVTIVCVANKYFPDVTVTWEVDGTTQTTGIENSKTPQNSADCTYNLSSTLTLTSTQYNSHKEYTCKVTQGTTSVVQSFNRGDC
pSYK IHC staining after phosphatase treatment of slides ([1]; except nuclear staining of normal spleen): eliminated epitopes | pSYK IHC staining after adding peptide immunogen to the antibody ([1]; peptide blocking): blocked | Detection of pSYK / distinction of untreated and Syk-inhibitor treated tumors [2]: able to specifically detect | Staining in recently biopsied DLBCL tissues versus Epitomics 2175-1 [3]: much stronger and cleaner | IHC background [4]: minimal background | ratio of Percent Positive Pixel per total Pixel, PHTX 95L Untreated ([5]; 20× magnification, Positive Pixel Count v9): 25.19% | ratio of Percent Positive Pixel per total Pixel, PHTX95L SYK Inhibitor ([5]; mice treated with SYK inhibitor (Compound A), 20× magnification): 11.30% | IHC performance compared with Epitomics 2175-1 ([5]; stains of PHTX-95L xenografts, intensity and signal to noise ratio, listed as MIL81-1-8): performing best and best

— patent US20180066068A9, “ANTI-PSYK ANTIBODY MOLECULES AND USE OF SAME FOR SYK-TARGETED THERAPY” (Millennium Pharmaceuticals, Inc., priority 2014, published 2018)
